In US20090232787A1, “CARCINOGEN DETOXIFICATION COMPOSITION AND METHOD” (Gene Research Lab. Co., Ltd., priority 2004, published 2009):

Assays:
CYP1A1 gene = settings: following BaP treatment; preliminary data
[1] = test system: Cytochrome p450 1A1 (CYP1A1); assay: Aryl hydrocarbon hydroxylase (AHH) assay; settings: cells treated with 9 μM BaP
Experimental: • 1.1 Cell lines and culture. Two HCC cell lines-Huh 7 (13) and HA22TNGH (14)—and one human hepatoblastoma cell line-Hep G2 (15)—were used in this study. Cells were cultured in Dulbecco's modified Eagle's medium (DMEM, GIBCO BRL, Grand Island, N.Y.) with 10% heat-inactivated fetal bovine serum (HyClone, Logan, Utah), penicillin (100 IU/ml), streptomycin (100 μg/ml), nonessential amino acids (0.1 mM), fungizone ([…]) and L-glutamine (2 mM) in a humidified incubator with 5% CO2. • 1.2 Construction of pGNMT, pGNMT-antisense and pGNMT-His-short plasmids. To construct plasmid-pGNMT containing the CMV promoter and GNMT cDNA fragment, we used plasmid-pFLAG-CMV-5 (Kodak, Rochester, N.Y.) as a vector and the pBluescript-GNMT-9-1-2 phagemid (8) as the PCR template for generating the insert. A 0.9 kb DNA fragment containing the GNMT cDNA sequence and restriction enzyme sites on both ends was amplified. All PCR conditions were as recommended by the manufacturer (Perkin Elmer, Norwalk, Conn.) with two exceptions: 2 mM of MgCl2 and 150 nM of primer. Twenty amplification cycles were performed using Perkin Elmer's Amplitaq Gold Taq DNA polymerase with DNA Thermal Cycler. […] RP concentration was measured with a BCA protein assay (Pierce, Rockford, Ill.); purity was tested by running samples on a 12.5% SDS-polyacrylamide mini-gel (Bio-Rad Laboratories, Richmond, Calif.). • 1.4 Transfection. […]

lung tumors = format: in vivo; settings: GNMT-overexpressing transgenic mice, 375 μg B(a)P/7g body weight everyday IP for 15 days, sacrificed 78 weeks after the challenge
Experimental: • 1.1 pPEPCKex-flGNMT Plasmid Construction: pPEPCKex-flGNMT plasmid was prepared by using a pPEPCKex vector (concluding with phosphoenolpyruvate carboxykinase promoter (PEPCK, Valera et al., 1994), specific expressed in liver and kidney) and pSK-flGNMT (concluding with full length human GNMT cDNA) plasmid. Both plasmids were digested with Not I and Xho I. Insert was ligated to the vector and transformation into the competent cell (JM109). The clones were selected with ampicillin and screened with PCR to check pPEPCKex-flGNMT plasmid (FIG. 1). • 1.2 Production of Transgenic Mice: pPEPCKex-flGNMT plasmid was amplified and digested with Asc I to linear form (4.3 Kb). The linear form pPEPCKex-flGNMT gene was sent into FVB stain mice 0.5 days embryo by pronuclei microinjection. The embryos were sent into the foster mother (ICR strain mice). After 18-21 days, the mice were bred and screened with PCR to check the transgenic mice. • 1.3 Expression human GNMT in liver and kidney of transgenic mice: To check the PEPCK promoter specific expression organ, we used northern blot (FIG. 2) and western blot (FIG. 3). The human GNMT was specific expression in liver and kidney. […]

Substance: GNMT: Glycine N-methyltransferase (EC2.1.1.20), SEQ ID No: 1, SAM-dependent methyltransferase binding benzo(a)pyrene
- reduction of CYP1A1 gene expression in SCG2-1-1 cells compared to Hep G2 cells (CYP1A1 gene): approximately 20%
- reduction in CYP1A1 enzyme activity in GNMT-expressing cells (SCG2-1-1) compared to SCG2-neg cells [1]: 45%
- mice that generated lung tumors (lung tumors): 30%
